Where no end group is shown, it is not given here. Side-chain parts run from the residue outwards. [ ]: non-standard residue; d: D form. The star is where a group is joined. BODIPY(FL) = CC1=CC(C)=[N+]2C1=Cc1ccc(CCC(=O)*)n1[B-]2(F)F; NMeK = CN[C@@H](CCCCN)C(=O)O
Columns and labels:
Assay in all cases: competition
integrin αvβ3 = target: T1, integrin αvβ3 (human, UniProt P06756)
T1 chain 1: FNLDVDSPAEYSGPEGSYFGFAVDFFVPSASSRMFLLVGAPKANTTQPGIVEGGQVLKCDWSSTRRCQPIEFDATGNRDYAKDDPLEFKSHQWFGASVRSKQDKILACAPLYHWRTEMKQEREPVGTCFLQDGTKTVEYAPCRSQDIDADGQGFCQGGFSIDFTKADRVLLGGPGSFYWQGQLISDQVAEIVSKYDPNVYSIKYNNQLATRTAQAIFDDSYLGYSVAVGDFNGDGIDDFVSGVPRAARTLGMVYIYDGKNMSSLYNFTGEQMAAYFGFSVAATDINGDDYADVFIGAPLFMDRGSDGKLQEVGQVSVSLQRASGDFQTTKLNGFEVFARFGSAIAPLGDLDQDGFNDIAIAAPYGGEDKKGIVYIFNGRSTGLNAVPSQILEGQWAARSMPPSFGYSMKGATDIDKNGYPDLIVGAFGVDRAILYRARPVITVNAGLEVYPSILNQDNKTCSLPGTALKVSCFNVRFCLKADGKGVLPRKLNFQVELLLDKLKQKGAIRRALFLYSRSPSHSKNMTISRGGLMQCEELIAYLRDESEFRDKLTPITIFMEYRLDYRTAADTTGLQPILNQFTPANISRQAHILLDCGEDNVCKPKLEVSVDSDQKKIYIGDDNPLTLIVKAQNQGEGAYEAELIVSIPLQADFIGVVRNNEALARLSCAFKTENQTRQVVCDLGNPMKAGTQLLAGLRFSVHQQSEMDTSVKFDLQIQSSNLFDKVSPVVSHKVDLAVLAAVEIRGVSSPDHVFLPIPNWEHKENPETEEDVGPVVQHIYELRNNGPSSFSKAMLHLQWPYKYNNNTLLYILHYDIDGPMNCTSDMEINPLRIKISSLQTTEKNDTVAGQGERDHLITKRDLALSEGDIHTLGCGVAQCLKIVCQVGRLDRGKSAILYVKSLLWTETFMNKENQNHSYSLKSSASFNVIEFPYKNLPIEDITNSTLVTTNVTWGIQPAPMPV
T1 chain 2: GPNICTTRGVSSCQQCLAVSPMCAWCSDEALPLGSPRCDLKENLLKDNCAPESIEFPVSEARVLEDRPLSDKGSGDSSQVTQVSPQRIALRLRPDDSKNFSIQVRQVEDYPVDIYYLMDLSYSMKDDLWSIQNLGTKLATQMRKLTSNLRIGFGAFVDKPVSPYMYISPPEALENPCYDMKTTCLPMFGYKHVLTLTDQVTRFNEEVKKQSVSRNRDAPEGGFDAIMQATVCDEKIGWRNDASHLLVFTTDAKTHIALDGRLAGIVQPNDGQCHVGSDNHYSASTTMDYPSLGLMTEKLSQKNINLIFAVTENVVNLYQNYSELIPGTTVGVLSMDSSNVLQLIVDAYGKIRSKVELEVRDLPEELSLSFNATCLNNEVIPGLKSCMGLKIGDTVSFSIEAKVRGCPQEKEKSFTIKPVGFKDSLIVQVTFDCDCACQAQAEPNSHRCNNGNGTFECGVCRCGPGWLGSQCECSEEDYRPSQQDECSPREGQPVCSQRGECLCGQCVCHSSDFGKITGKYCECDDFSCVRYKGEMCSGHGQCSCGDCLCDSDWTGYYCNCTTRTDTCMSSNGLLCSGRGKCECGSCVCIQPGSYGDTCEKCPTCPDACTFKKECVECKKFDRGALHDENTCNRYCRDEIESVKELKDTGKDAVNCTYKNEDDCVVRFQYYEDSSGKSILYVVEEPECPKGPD

integrin αvβ6 = target: T2, integrin αvβ6 (human, UniProt P06756)
T2 chain 1: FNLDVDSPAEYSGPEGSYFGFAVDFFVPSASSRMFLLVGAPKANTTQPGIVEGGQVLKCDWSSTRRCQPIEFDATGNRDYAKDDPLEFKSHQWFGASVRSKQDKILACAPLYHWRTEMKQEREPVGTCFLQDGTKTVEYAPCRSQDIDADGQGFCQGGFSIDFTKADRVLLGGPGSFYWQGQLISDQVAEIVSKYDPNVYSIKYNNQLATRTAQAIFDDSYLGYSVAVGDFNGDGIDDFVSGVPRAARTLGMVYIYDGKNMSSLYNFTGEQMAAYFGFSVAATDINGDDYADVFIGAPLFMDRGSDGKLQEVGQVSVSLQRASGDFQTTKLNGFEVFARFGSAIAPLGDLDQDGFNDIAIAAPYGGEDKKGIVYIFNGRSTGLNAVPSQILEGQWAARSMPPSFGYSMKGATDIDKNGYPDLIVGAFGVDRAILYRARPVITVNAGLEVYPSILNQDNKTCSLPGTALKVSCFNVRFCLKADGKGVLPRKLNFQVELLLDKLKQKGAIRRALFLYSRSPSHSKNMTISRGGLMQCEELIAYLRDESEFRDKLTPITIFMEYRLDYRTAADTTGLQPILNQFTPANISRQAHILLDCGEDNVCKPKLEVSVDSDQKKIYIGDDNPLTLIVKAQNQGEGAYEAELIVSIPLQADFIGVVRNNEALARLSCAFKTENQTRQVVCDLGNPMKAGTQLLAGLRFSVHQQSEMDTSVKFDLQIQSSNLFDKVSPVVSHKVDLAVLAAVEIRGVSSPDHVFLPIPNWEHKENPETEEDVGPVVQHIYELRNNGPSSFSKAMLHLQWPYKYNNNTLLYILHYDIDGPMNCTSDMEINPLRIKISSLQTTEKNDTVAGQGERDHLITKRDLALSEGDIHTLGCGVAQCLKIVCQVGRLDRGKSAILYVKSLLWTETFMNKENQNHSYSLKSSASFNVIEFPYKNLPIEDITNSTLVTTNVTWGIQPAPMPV
T2 chain 2: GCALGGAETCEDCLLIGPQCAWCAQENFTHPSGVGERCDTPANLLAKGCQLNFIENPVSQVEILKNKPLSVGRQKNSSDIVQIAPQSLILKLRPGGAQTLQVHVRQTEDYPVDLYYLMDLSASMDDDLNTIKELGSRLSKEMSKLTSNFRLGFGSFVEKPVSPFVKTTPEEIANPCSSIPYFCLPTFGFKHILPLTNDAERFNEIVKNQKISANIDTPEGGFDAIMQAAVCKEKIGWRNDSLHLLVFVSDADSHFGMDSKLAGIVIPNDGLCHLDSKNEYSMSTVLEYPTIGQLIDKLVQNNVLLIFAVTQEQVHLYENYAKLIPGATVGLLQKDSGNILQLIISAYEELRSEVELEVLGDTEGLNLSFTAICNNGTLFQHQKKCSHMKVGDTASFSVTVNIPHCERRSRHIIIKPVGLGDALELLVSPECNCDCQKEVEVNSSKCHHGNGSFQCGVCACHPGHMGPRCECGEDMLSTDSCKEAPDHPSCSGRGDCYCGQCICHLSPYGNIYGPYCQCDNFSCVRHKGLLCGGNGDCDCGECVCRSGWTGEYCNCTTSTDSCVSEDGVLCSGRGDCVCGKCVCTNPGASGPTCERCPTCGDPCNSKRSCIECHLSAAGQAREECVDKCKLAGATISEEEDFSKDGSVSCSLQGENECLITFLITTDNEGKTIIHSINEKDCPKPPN

integrin αvβ5 = target: T3, integrin αvβ5 (human, UniProt P06756)
T3 chain 1: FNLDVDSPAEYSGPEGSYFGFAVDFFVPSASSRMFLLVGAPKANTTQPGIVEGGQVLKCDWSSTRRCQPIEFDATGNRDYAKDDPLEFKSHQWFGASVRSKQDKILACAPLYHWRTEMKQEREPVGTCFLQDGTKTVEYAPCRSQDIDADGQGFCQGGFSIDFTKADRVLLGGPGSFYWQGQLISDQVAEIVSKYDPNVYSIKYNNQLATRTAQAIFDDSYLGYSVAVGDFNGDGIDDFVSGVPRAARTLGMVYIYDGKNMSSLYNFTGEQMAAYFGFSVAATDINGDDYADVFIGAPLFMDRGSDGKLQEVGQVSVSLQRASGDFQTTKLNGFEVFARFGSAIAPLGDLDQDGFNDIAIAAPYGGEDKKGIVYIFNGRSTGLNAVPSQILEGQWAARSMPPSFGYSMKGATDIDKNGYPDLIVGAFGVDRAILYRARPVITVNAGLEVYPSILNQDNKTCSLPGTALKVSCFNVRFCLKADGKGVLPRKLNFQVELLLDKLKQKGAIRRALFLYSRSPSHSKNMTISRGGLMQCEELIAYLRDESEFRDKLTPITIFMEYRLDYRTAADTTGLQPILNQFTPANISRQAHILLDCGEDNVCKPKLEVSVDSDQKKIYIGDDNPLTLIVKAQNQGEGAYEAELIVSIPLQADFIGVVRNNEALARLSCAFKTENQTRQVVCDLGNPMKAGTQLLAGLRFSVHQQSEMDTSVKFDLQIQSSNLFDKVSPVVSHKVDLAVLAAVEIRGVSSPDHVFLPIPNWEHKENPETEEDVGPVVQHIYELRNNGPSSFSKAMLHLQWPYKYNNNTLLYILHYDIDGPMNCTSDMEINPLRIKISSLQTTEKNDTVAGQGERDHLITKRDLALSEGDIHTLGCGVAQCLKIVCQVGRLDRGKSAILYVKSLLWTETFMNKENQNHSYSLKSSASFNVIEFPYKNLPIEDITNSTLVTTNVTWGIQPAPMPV
T3 chain 2: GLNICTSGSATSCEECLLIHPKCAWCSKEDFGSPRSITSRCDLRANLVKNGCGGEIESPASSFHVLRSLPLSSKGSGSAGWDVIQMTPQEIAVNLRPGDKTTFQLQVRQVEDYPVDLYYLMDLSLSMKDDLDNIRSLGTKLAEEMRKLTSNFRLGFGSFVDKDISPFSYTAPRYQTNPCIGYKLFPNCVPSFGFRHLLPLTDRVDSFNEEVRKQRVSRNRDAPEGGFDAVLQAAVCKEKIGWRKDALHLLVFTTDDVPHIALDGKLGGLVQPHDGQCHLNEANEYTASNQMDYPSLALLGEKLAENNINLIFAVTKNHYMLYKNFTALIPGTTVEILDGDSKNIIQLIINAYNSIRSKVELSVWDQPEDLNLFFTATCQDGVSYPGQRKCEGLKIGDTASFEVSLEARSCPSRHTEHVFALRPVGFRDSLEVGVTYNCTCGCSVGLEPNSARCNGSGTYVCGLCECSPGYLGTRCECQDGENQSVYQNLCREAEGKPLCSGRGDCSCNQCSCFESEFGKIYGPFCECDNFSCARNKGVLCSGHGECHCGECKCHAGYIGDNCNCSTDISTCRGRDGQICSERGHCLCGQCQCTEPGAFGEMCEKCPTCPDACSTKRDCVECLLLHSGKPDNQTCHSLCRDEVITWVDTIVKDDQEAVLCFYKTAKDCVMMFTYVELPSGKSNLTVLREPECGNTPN

integrin α5β1 = integrin α5β1 (human, UniProt P08648)
integrin α5β1, sequence (P08648 42-1049, chain 1 of 2): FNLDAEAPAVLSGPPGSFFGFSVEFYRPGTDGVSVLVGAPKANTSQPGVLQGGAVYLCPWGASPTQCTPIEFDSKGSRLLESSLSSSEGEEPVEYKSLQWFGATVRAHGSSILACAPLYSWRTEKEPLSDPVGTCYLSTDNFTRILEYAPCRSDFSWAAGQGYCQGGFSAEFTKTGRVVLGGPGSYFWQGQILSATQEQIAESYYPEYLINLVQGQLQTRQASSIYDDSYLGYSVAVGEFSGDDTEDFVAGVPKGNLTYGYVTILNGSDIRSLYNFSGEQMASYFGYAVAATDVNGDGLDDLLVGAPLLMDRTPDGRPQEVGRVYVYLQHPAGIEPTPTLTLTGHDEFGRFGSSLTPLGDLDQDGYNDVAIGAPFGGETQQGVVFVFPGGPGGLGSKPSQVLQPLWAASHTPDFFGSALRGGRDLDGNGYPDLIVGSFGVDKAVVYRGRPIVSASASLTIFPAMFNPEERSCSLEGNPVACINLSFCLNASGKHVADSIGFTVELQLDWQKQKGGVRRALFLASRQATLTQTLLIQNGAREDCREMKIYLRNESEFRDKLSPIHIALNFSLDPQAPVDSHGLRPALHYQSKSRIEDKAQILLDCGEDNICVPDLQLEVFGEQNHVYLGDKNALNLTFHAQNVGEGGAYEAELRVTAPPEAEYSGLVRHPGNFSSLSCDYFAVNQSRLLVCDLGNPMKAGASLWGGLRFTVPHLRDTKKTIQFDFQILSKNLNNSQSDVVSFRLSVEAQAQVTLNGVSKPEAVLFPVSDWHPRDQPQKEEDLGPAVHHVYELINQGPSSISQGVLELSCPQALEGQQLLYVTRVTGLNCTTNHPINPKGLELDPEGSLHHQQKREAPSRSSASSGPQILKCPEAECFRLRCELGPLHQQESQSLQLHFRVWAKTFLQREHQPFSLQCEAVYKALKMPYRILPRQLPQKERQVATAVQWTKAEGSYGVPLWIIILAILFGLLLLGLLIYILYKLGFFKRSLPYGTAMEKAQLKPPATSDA
integrin α5β1, sequence (chain, as listed by the source, chain 2 of 2): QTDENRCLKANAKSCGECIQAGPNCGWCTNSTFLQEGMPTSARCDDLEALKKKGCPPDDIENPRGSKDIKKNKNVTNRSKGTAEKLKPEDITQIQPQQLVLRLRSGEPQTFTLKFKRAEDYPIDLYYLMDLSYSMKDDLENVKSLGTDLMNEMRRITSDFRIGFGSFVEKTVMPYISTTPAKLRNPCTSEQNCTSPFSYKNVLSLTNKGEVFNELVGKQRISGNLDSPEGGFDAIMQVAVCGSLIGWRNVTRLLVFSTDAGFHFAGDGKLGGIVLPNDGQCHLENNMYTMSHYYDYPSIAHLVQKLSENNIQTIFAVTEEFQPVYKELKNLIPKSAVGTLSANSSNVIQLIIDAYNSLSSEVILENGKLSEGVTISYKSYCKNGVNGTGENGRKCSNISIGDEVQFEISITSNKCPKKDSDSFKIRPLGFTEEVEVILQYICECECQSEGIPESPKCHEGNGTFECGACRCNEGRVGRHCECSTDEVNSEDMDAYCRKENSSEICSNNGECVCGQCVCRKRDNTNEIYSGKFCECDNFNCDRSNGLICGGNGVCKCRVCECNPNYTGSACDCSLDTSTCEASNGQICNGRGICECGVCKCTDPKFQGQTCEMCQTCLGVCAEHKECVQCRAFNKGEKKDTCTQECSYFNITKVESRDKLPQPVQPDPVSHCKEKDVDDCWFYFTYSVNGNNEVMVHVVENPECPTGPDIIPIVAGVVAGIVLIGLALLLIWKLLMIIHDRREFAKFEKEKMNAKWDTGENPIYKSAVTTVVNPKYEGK

integrin αvβ8 = target: T4, integrin αvβ8 (human, UniProt P06756)
T4 chain 1: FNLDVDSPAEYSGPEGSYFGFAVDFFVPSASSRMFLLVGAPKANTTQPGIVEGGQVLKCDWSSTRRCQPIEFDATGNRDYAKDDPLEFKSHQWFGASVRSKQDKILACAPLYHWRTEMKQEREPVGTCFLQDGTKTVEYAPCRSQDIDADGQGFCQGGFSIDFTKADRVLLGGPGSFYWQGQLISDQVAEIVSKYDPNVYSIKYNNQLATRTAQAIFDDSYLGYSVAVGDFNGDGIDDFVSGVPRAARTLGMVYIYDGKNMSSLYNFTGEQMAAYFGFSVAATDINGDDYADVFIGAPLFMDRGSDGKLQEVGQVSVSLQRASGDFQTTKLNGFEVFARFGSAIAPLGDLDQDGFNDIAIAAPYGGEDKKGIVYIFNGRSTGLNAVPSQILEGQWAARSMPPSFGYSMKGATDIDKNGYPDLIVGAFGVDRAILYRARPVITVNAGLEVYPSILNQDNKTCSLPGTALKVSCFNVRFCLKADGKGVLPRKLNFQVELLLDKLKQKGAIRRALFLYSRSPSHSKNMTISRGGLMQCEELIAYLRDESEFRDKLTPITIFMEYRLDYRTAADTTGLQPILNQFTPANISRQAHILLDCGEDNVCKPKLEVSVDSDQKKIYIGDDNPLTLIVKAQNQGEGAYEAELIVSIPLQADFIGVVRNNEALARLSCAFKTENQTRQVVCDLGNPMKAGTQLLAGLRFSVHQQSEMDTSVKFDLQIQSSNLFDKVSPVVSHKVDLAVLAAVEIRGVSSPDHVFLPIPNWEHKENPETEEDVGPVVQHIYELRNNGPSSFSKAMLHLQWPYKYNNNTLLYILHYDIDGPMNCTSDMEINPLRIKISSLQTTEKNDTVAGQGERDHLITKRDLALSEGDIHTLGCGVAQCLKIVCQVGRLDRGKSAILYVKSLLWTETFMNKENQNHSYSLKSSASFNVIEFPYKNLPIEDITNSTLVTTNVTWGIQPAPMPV
T4 chain 2: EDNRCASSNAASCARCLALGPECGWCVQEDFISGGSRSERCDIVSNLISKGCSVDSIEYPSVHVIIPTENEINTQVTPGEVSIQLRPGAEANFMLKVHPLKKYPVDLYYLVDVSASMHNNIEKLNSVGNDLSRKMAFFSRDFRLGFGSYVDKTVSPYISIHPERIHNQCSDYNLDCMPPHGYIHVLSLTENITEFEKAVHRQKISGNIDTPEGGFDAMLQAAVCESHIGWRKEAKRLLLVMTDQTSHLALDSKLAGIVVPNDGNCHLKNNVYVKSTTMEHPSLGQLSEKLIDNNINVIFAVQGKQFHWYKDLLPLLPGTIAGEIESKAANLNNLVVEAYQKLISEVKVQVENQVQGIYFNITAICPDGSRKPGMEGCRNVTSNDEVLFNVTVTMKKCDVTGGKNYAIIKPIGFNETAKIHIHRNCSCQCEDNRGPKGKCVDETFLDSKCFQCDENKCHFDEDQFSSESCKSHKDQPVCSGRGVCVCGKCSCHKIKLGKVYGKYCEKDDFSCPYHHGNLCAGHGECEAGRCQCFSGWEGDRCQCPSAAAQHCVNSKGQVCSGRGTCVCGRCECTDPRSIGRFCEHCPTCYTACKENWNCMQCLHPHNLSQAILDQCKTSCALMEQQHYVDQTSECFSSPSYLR

Binder: RGDL[dP][NMeK]([(PEG)5-BODIPY(FL)])GL (not fully specified (bridges); also: cyclic, closure not given here) [Compound 9d (9-(PEG)5-BDPFL)]
- IC50 (integrin αvβ3): 98 nM
- IC50 (integrin αvβ6): 247 nM
- IC50 (integrin αvβ5): > 10000 nM
- IC50 (integrin α5β1): 95 nM
- IC50 (integrin αvβ8): 1.25 nM

Source: patent US20200087347 (published 2020)
